Biological target: T1, PKM2 (ab89364, Abcam) (human, UniProt P14618 1-531)
T1 construct: human M2 isoform of pyruvate kinase (PKM2), bought recombinant protein; see the vendor's sheet for ab89364; also called PKM2 protein; source: bought: Abcam (ab89364)
Test: BLI; biotinylated TRIB2 loaded onto SSA biosensors, blocked with biocytin (5 μg/ml) for 60 s; PKM2 diluted in PBS as analyte; Octet data analysis software
Details: both partners purified

T1 sequence (P14618 whole entry, canonical isoform): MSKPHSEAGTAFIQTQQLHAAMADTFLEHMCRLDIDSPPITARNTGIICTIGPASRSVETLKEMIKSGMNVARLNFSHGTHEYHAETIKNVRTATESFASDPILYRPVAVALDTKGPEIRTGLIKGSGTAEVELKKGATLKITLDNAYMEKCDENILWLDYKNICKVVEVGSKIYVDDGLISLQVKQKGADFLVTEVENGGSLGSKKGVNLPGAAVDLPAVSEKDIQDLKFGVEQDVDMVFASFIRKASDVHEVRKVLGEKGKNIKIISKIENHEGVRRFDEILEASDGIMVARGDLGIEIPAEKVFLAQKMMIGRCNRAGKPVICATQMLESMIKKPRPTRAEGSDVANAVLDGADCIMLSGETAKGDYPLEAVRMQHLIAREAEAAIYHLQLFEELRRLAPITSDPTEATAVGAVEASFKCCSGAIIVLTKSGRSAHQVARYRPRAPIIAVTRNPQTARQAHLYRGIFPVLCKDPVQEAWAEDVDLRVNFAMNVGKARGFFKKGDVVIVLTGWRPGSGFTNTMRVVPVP

Kd: 7.44 nM
B1: recombinant TRIB2 protein (TP301210, OriGene), biotinylated (natural protein, human, UniProt Q92519 1-343, looked up)
chain: MNIHRSTPITIARYGRSRNKTQDFEELSSIRSAEPSQSFSPNLGSPSPPETPNLSHCVSCIGKYLLLEPLEGDHVFRAVHLHSGEELVCKVFDISCYQESLAPCFCLSAHSNINQITEIILGETKAYVFFERSYGDMHSFVRTCKKLREEEAARLFYQIASAVAHCHDGGLVLRDLKLRKFIFKDEERTRVKLESLEDAYILRGDDDSLSDKHGCPAYVSPEILNTSGSYSGKAADVWSLGVMLYTMLVGRYPFHDIEPSSLFSKIRRGQFNIPETLSPKAKCLIRSILRREPSERLTSQEILDHPWFSTDFSVSNSAYGAKEVSDQLVPDVNMEENLDPFFN
modifications: biotinylated
notes: human Tribbles homologue 2 (TRIB2), bought recombinant protein; also called human TRIB2; source: bought: OriGene (TP301210)
